Measurements: the DeepSol protein solubility set

assay: soluble on expression in E. coli; label from the status in PepcDB or PDB records

Soluble on expression in E. coli, not soluble:
MGHVSNSPFSVDVLVVGGGPAGSAAAIHAAKAGYSVLLIDAQPFPRDKTCGDGLTPRAVHQLEALGVDVTSRYRSFGLKLHGFGGSVTVPWPESHFGQVSSAMPRMKFDAMLWEMAAQHATTWTATASEVEIDSAIRSVTMSDGRVVKPRSVIVADGVRSTFGKLLGRTWHRGEVYGIAARSYCTTPRSTEPWMHSHLELRDDSTTLPGYGWIFPIGDGTANVGCGALSTDKRPAKINTKKLLRHYASQQTDWEFGTPQRVASALLPMGGAVSTIAGPNWMLIGDAAACVNPLNGEGIDYGLETAALAVAHLDNPLEWPHILRETYGEAFLLARTAARLLTYPQFLPLTGPIALRTPLMASAARLMGNLVTEEDKDIVARAWRAAGWGVTKIRGGSPLWDLEHHHHHH, MSLNFTALDFETANTHKTSICAVGMAIVEDGKVVKTISKLIKPVPDFYSYWNVQIHGITPDMTADAPYFIDVWQELKQYIDYSTLVAHNAAFDVGALRSILTTHEVSFPKTDYFCSCSVSRKVFKEIENHKLSTVCRHIDVPLNHHEAESDAIGAAQIIIKAGERLGANSIEELMAMLKMKLKVEGHHHHHH, MLHITLHQLKIFESVARLLNFTHAAEELHLTQPAVSIQIKRLEEMVALPLFEQIGKRVHLTEAGKELFHYSRGITRQLADMELALDELKGLERGKLSISVVSTANYFVPNLLAKFCQRYPGITISLHVSNRENVLKQLSDNIMDLAIMGQPPEGLDITSESFMENPLVIIAPPEHPLCGQKQIPVKRLEQEIFLVREPGSGTRNAMERFFAHEKISIQKGMEADTAEAIKQAIQAGMGLGIMSLHTIRLELEAGRLKILDIQGLPIMRYWNVVHQKNKRLSNISSVFKQFLLNEAADLVALEYPHRNTT, MGSDKIHHHHHHMNFTHKNLQRSYMAERTMVILDGGMGRELQRSGAPFRQPEWSALALSEAPEAVVGVHAAFIDAGAQVITSNSYAVVPFHIGEERFAAEGRQLAHIAGQLARHAADSGAHPVRVAGSLPPLFGSYRPDLFQPERVAEVLTPLLQGLAPHVDLWLAETQSSVAEVRAIHSHLPADGRPFWVSFTLQDEEVDEVPRLRSGEPVAEAIEAAVGLGVAAVLFNCSQPEVIGAAIDVARSVIERHNAEIAIGAYANAFPPQPKEATANDGLDELREDLDPPGYLAWAKDWRARGASMVGGCCGIGPEHIAELKRNLA, MTERKLVAERNFEVNGYDIDAMGIVSNIVYIRWFEDLRTDFINQYMPYSDMMNQQISPILMNTEAEYKTPITIHDKPVGRCYLVKASKLRWEFEFEIESEDAVHCIGKQSGTFFDLQKKKVTRLPEVFQTILSLEHHHHHH, MVQSLNTKVDLVIDATAFTGLTDYGQIMIGDRGFEFYHAKDPRKFIQIPWEEVDYVLASVMFKGKWIPRYAIQTKKNGTYTFASKEPKRVLRAIREYVDPDHMVQSLSFFDVIKRGILSIGKKKK, MTKAMTAHDYLPLIEKIRKRISSWTGRFLSYCGRLQLIKSVLMSITNFWSSAFRLPGNCMKEIERLCSAFLWSGPDLKTHNAKIAWSKVCLPMCEGGLGLRPLKEINTVCGLKLIWRLLASQTSLWGQWVQTYLIRRNNFWAIKASSYQGSWMWRKLLTLRDVARSFHKKEIHNGRNTSFWYDHWSSMGTLVDVLGARGCIDLGITTTTNMENVFTTRRSRKHRGDLLVRIEAEIEAAKTRHQPDIEDIDLWKPSTGYKKTFSTRETWKLIRMAEPVCEWAKGVWFPKPHQNLLSLLGWVCTIVFQQGTECKSGTAKLTLLAFSAKTLWKQEITYSSTVTTPIKFGKL, MNVSVVIPALNEEATVADVVALSRRGSDEVIVIDSDSTDATAARAKAAGASVVNWRDVVSLPPIPGKGEALWRGVAAARGDVVVFLDADLTEISPTIVEDLARPFIDDSVMLAKAAYTRGDASGGGGRVTELTARPLLEAFFPELGFVRQPLGGEYAIRRSAALDLPFVGGYGVEVGLLIDVFRCFGAASIVEVEAGHRGHRHRPLRELAPMARVVASTILQRAGVASGLDGVGQRPAISSLESGVGKV, MNPDKTVLSCHNPEWRGERPAPSLIARCAQLAMLLEVSASPKPGNVDREHNYPDTCFEHFVASSVAVYPVFELAAKSTGRIGQLLRSAVYESSAWQQGGNTHFGAFLLLIPLAMAAGEISREQGEQPGCGKTFFRIEAEEFENLASHAHAFVRETDCEDAVEFYRAFGHAGVRVNSVEEFDLEDPEATSDLRNQNITLYSLMEIAKGYDLIANEWTSGFGRCLEGAKIILDFMDARNCREEALAGGSVSICSGTGINEAVVYTFLKLLSKHRDTFIQTKFDAETADYVSSRAGEVLSGWEISGKKAGDFASILPRIQEFDSELLDKRINPGSTADIIIAALFIALLGGLRF, MVDKAGNPLTVDDISQCHLPGFPILFTQNELLEILAKEIFKQQFLWKSVQDKDIKECNKEERIIKQIPLMPRCPDVLKGLFHCIEIRDERSPKHAIAYKSCLGKLEEMVKDQWDDWNRNQS, MGSDKIHHHHHHMAERVLVPTQIGRGDRYYTYTELLAISRRFKQNPNELMVTWILRVYDQGGPALSLNSGELGLLGDLTHDAIFNYRCKALRGAGCQTLLSWLLQAWRQRWESSLHFEATELPFRPWTTMEEGIQLVRELGMIEWIYLDPEGPVDLAPEDVAFTQGLQRRLLTAAPSELRLSLVSLLVRGMTVLEAVMEIQTIADVGLLWRQSHPGRTKLMLGPNPTRKDLLGWLLSHGVPREQVDRQPTKVLLELYIKEAKRSRGHPNYGLNEEQPPPPPYSDQACGEEQPVRHD, MSVHESSNEINDEPMDTDSNIPESSGNDPSMEVDDEPESSDAADSFKRFERLLQKTENFSHCLSSGDAKLATGAPVDTKKRGRPSKKNGIDGDHRHRKTEQEEDEEMVADAIKSDDLVIFDKSPFYIENGEMRDYQVRGLNWLASLQHNKINGILADEMGLGKTLQTISMIGYMKHYKNKASPHLVIVPKSTLQNWANEFKKWCPSINAVVLIGDEAARNQVLRDVILPQKFDVCCTTYEMMLKVKTQLKKLNWRYIIIDEAHRIKNEKSKLSETVRELNSENRLLITGTPLQNNLHELWALLNFLLPDIFTSSDDFDSWFSNDAMSGNTDLVQRLHKVLQPFLLRRIKSDVEKSLLPKKEVKVYVGLSKMQREWYTKVLMKDIDIINGAGKVEKARLMNILMHLRKCVNHPYLFDGAEPGPPFTTDQHLVDNSGKMVVLDKLLMKFKEQGSRVLIFSQFSRMLDLLEDFCWWRHYEYCRLDGSTPHEDRSNAIEAYNAPDSKKFIFMLTTRAGGLGINLATADVVIIYDSDWNPQSDLQAMDRAHRIGQKKQVRVFRLITENTVDERIIEKAEAKLRLDNIVIQQGRMSEAQKTLGKGDMISMIRHGAEQVFAAKDSTISDDDIDTILEKAEVKTAELNEKMGKIDENNLRNMTFEDNAKFTVYQFEGENYKAKQADGMGHFWIEPPKRERKANYQVDLYYKEAMRAGNPTEKQSKAPRPKLPQVFDFQFYPRRLFELLDKEIYHYRKTIGYVAERPKDVPPKEAEKRQAEEQKLINNARPLTDKEQEEKAELLTQSVTDWTKREFQQFVRGNEKYGREDLESIAKEMERPLEEIQSYAKVFWERIEELQDSEKVLSQIEKGEARIQRKYAVKKALDAKIAKYKAPFQQLRISYGTNKGKTYTEEEDRFLVCETHRLGHDKENVFEELRQSVRMAPQFRFDWFLKSRTAMELQRRCNTLITLIEREMGEVVESKPVIVTAADKKKSVAKDLSKSSGTPTAKKVKATPK

Soluble on expression in E. coli, soluble:
MEYRIERDTMGEVRVPADKYWGAQTQRSLENFRIGTDRFRMPLEIIRAYGMLKKAAARANLELGELPEEIAKAIIQAAEEVVQGKWDDHFPLVVFQTGSGTQTNMNVNEVIANRASEILGKPLGSKYVHPNDHVNRGQSSNDTFPTAMYVAVALALHQRLYPAVEGLIRTFTAKAQAFDQIVKVGRTHLMDAVPITLGQEIGSWAAQLKTTLAAVKEMEKGLYNLAIGGTAVGTGLNAHPRFGELVAKYLAEETGLPFRVAENRFAALAAHDELVNVMGAIRTLAGALMKIGNDVRWLASGPYAGIGEITIPANEPGSSIMPGKVNPTQVEALTMVVVRVYGNDHTVAFAGSQGNFQLNVYKPVMAYSTLESINLLADAVASFDAHLAQGIEPNLERIEEHLQKNPMLATALNKAIGYDKAAEIVKKALKEKKTLKQAALELGYLTEEEFDRIVVPMRLAKPHEGA, AGHMVSCCYRSLAAPDLTLRDLLDIVETSQAHNARAQLTGALFYSQGVFFQWLEGRPAAVAEVMTHIQRDRRHSNVEILAEEPIAKRRFAGWHMQLSCSEADMRSLGLAESRQIVTVGRSL, MSLERLIPIIAPQVPEKPLLNDSLGSGIGCSATLGRSTKFEDNFMCLKQDNVLFVGVFDGHAGHESALISAECFTKILPSFDFTNAIHQKNPEKDEENIQKFDFPKVENHLSPRRNHFRNVKTQENQIFGSQKIETKNIKNTQKIELKNSEKIELENSKGSENLNTKLIKTYLRMAFAQVNDELRNRKVKDGTTAVVVCLFENRKGAVAHVGDSLALLVGQTTSKLLTKMHRPSDKDEFYRMRKRNKSVSSDWKVDGKLSVSRSLGDFWCCGGMFDDADVSFFDLNDDALSIVLGCDGLWDYVDEGTVCNVVRELRDPVKAAKLLQDIAFASGSHDSISVIVVNVEPTEGHHHHHH, MSLTNKMIYDQASGLRRLTQPSVTKVISVTGGKGGVGKSNVTLGMAICMAKQGKKVMVLDADLGLANVDVMLGIRPKRNLGHVLAGECELKDAIVEGPHGIRIIPATSGTQSMTELSHAQHVGLIRAFGTLEDEMDILLIDTAAGISDMVVSFSRAAQDVVVVVCDEPTSITDAYALIKLLSKEHQVQRFKIVANMVRSYREGRELFAKLTLVTERFLNVSLELVACIPLDDNVRQAVKRQKIVVDAYPRSPAALAISSLANKALTWPIPRTPSGHLEFFVERLLNRSEGHHHHHH, MAATARRGWGAAAVAAGLRRRFCHKLKNPYTIKKQPLHQFVQRPLFPLPAAFYHPVRYMFIQTQDTPNPNSLKFIPGKPVLETRTMDFPTPAAAFRSPLARQLFRIEGVKSVFFGPDFITVTKENEELDWNLLKPDIYATIMDFFASGLPLVTEETPSGEAGSEEDDEVVAMIKELLDTRIRPTVQEDGGDVIYKGFEDGIVQLKLQGSCTSCPSSIITLKNGIQNMLQFYIPEVEGVEQVMDDESDEKEANSP, MQAVNTTSGGAVGVERQQYMFSMLSTDEVNQMYAQSYQQTLGEASSKGVLDKSSADAKRVQAIANRLIAQAPKFRPDAAQWDWQVNVIKSDELNANCGPGGKIIVYTGLIDQLKLTDAEIAAVVGHEIAHALREHSREAMSKAYGVEMARQGAGAIFGLGQSSMAMADTVVNYAMTLPNSRANENEADLIGLELSARAGYDPNAAITLWNKMSKASEGAPPEFMSTHPASASRIASLQAAIPKVMPLYQAAAKPLEHHHHHH, MSLAPANGLRIYALGGISEIGRNMTVFEYNNRLLIVDCGVLFPSSGEPGVDLILPDFGPIEDHLHRVDALVVTHGHEDHIGAIPWLLKLRNDIPILASRFTLALIAAKCKEHRQRPKLIEVNEQSNEDRGPFNIRFWAVNHSIPDCLGLAIKTPAGLVIHTGDIKLDQTPPDGRPTDLPALSRFGDEGVDLMLCDSTNATTPGVSGSEADVAPTLKRLVGDAKQRVILASFASNVYRVQAAVDAAVASNRKVAFNGRSMIRNMEIAEKLGYLKAPRGTIISMDDASRMAPHKVMLITTGTQGEPMAALSRMARREHRQITVRDGDLIILSSSLVPGNEEAVFGVINMLAQIGATVVTGRDAKVHTSGHGYSGELLFLYNAARPKNAMPVHGEWRHLRANKELAISTGVNRDNVVLAQNGVVVDMVNEGHHHHHH, GAMAPERPLVGVNGLDVTSLRPFDLVIPFTIKKGEITGEVRMPSGKVAQPTITDNKDGTVTVRYAPSEAGLHEMDIRYDNMHIPGSPLQFYVDYVNCGHVTAYGPGLTHGVVNKPATFTVNTKDAGEGGLSLAIEGPSKAEISCTDNQDGTCSVSYLPVLPGDYSILVKYNEQHVPGSPFTARVTGDD
